# From patent US20040235717A1, “Suppression of androgen receptor transactivation through new pathways to ar and ar coactivators and repressors” (priority 2001, published 2004)
# What was measured:
# [1] = tested on: LNCaP cells; test: PTEN-induced apoptosis in LNCaP cells, TUNEL assay; format: cell-based
# [2] = tested on: interaction between AR and PTEN; test: Co-immunoprecipitation of AR and PTEN in CWR22 cells; format: cell-based, human
# Description: 28. […] (C) The cell lysates from the CWR22 were immunoprecipitated by anti-PTEN antibody, followed by Western blot analysis. […] The cells were harvested for co-immunoprecipitation. Lane 1: 10% input; Lane 2: IP by non-immune IgG; Lane 3: IP by anti-AR antibody; Lane 4: The PTEN protein was depleted from the cell lysates by anti-PTEN antibody before IP by anti-AR antibody; Lane 5: IP by anti-PTEN antibody. (E) CWR22 cells were transfected with vector or Akf for 48 h and the cells were harvested for immunoprecipitation assay.
# 314. The immunoprecipitation and Western blotting were performed as previously described (Qiu et al. (1998) Nature 393, 83-5). The cell extracts (1 mg) were immunoprecipitated with the indicated antibody. The immunocomplexes were subjected to 8% SDS-PAGE and immunoblotted with the indicated antibody.
# [3] = tested on: AR protein levels; test: AR protein (Western blot) and AR mRNA (Northern blot) levels; format: cell-based; conditions: LNCaP; 10 nM DHT
# [4] = tested on: AR transactivation; test: AR transactivation, (ARE)4-luc in CWR22 cells; format: cell-based, human
# Description: (§1) 31. […] (D) The LNCaP cells were transfected with plasmids as indicated for 16 h, and the medium was changed to 0.1% CDS media for 2 days. The cell apoptosis was determined by TUNEL assay (E) The LNCaP cells were transfected with plasmids as indicated for 16 h, harvested, and the cell extracts were subjected to SDS-PAGE. The Akt activity was determined by Western blotting using phospho(S473)-Akt antibody. (F) The U87MG cells were transfected with plasmids as indicated for 16 h, and the medium was changed 0.1% CDS media for 2 days. The cell apoptosis was determined by TUNEL assay. Data for luciferase activity and apoptosis are means±s.d. from three independent experiments.
# 312. […] The cells were lysed and the luciferase activity was detected by the dual luciferase assay according to standard procedures.
# [5] = tested on: Akt; test: Akt activity in LNCaP cells, Western blot with phospho-Akt (Ser473) antibody; format: cell-based; conditions: LNCaP
# Description: 18. […] (A) Akt suppressed androgen/AR-induced p21 promoter activity. […] (B) Androgen/AR-induced PC-3(AR)6 apoptosis and p21 protein expression was blocked by Akt PC-3(AR)6 was transfected with pCDNA3, cAkt, or dAkt, as indicated, for 16 h. […] (C) AR-induced p21 protein expression was enhanced by dAkt in LNCaP cells. […] LNCaP stable transfection with dAkt was confirmed by western blot assay using phospho-Akt (Ser473) antibody. […] TPA was then added for another 24 h and cell apoptosis was determined by TUNEL assay. […] IGF-1 was added for another 30 min, followed by 10 nM TPA treatment for another 24 h. The apoptosis was determined by TUNEL assay. The data are means±s.d. from three independent experiments.
# as §1
# [6] = tested on: U87MG cells; test: PTEN-induced apoptosis in AR-negative U87MG cells, TUNEL assay; format: cell-based
# Description: as §1
# 311. For the apoptosis assay, the cells were transfected with plasmids for 24 h and grown in 0.1% charcol-stripped serum (CDS) media. The apoptosis was determined 2 days after transfection using the TUNEL assay according to the standard procedures (Oncogene). At least 200 cells were scored for each sample and data are means±s.d. from three independent experiments.
# [7] = tested on: AR transactivation; test: AR transactivation, MMTV-luc / (ARE)4-luc luciferase reporter assay; format: cell-based; conditions: LNCaP
Molecule,Effect on PTEN-induced apoptosis [1],Interaction between AR and PTEN [2],Effect on PTEN-mediated promotion of AR degradation [3],Effect on PTEN suppression of AR transactivation [4],Effect on PTEN-mediated inhibition of Akt activity [5],Effect on PTEN-induced apoptosis [6],Effect on PTEN suppression of AR transactivation [7],"Effect on PTEN functions (AR degradation, AR transactivation) [7]"
"ARf: the interaction domain within AR (aa; 483-651) (protein, left off: small tags and cut ends) YTRPPQGLAGQESDFTAPDVWYPGGMVSRVPYPSPTCVKSEMGPWMDSYSGPYGDMRLETARDHVLPIDYYFPPQKTCLICGDEASGCHYGALTCGSCKVFFKRAAEGKQKYLCASRNDCTIDKFRRKNCPSCRLRKCYEAGMTLGARKLKKLGNLKLQEEGEASSTTS",markedly reduced PTEN-induced apoptosis,disrupted the interaction between AR and PTEN,dramatically reduce,significantly reduce PTEN suppressive effect on AR transactivation,little influence,only marginal effects,dramatically reduce,
"PTEN-#1: PTEN fragment (aa, 1-107) that does not interact with AR (protein, left off: a dimerising Fc or GST) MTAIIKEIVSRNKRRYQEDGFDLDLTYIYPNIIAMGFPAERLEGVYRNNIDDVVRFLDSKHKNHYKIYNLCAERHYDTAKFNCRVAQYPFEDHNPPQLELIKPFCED",,,,,,,,only marginal effect
